Measurements from PMC10074561.

Legend:
TASK3 [1] = target: TASK3 (UniProt Q9NPC2); test: fluorescence polarisation; fluorescence anisotropy; 14-3-3 titrated in the presence of 10 nM labelled TASK3; KD fitted here with a one-to-one equilibrium model; data (Dataset S1) from earlier work
TASK3 [2] = target: TASK3 (UniProt Q9NPC2); test: fluorescence polarisation; 2D fluorescence anisotropy titrations of 14-3-3 at varying concentrations of fusicoccin-A, 10 nM labelled TASK3; fitted here with a ternary equilibrium model, KD,I fixed at 4.05 μM; data (Dataset S2) published before

Chain of UniProt Q9NPC2 (Q9NPC2 whole entry): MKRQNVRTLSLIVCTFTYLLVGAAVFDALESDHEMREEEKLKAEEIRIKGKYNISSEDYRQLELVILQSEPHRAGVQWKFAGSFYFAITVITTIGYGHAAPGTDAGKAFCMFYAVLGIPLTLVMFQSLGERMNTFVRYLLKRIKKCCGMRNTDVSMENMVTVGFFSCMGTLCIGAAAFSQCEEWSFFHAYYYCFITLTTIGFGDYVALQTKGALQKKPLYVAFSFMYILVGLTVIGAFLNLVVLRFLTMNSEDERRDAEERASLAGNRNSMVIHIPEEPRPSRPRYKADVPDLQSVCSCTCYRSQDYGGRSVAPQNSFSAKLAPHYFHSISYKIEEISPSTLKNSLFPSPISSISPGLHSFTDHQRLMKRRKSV

In the case of “14-3-3 protein (from UniProt P31947 1-248) (natural protein)”, the Kd (TASK3 [1]) is reported as 4.05 µM and the cooperativity factor α with fusicoccin-A (TASK3 [2]) is reported as 1340.
